Test [1] deals with mannose-6-phosphate receptor (M6PR). The test can be described thus: SPR (BIACORE T200), M6PR on CM5 chip; the reference itself. A general note: SPR reads the build-up and loss of mass on a sensor chip optically.
For test [2] the target is unchanged. The test can be described thus: SPR (BIACORE T200), M6PR amine-coupled to CM5 chip, analyte 200 nM to 12.5 nM in HBS-EP.
In test [3] the target is mannose-6-phosphate receptor (M6PR) expressed on CCD986SK cells (human skin fibroblasts) (human). The test can be described thus: cell-based or functional assay.
Test [4] concerns the target mannose-6-phosphate receptor (M6PR). The experiment in a line: SPR (BIACORE T200), M6PR amine-coupled to CM5 chip, analyte 100 nM to 6.24 nM, HBS-EP pH 7.5, 1:1 Langmuir model.
Test [5] shares this target. The experiment in a line: SPR (BIACORE T200), M6PR amine-coupled to CM5 chip, analyte 50 nM to 3.125 nM, HBS-EP pH 7.5, 1:1 Langmuir model.
Test [6] shares this target. The test can be described thus: SPR, summary table; relative to galsulfase.
Test [7] shares this target. The test can be described thus: SPR (BIACORE T200), M6PR amine-coupled to CM5 chip, analyte 200 nM to 12.5 nM, HBS-EP pH 7.5, 1:1 Langmuir model.
For test [8] the target is unchanged. The test can be described thus: SPR, summary table; relative to imiglucerase.
For test [9] the target is unchanged. The test can be described thus: SPR (BIACORE T200), M6PR amine-coupled to CM5 chip, analyte 100 nM to 6.25 nM, HBS-EP pH 7.5, 1:1 Langmuir model.
For test [10] the target is unchanged. The experiment in a line: SPR, summary table; relative to iduronidase.
For test [11] the target is unchanged. The experiment in a line: SPR (BIACORE T200), M6PR on CM5 chip; relative to agalsidase beta.
For test [12] the target is unchanged. The test can be described thus: SPR (BIACORE T200), M6PR amine-coupled to CM5 chip.
The target is the same in test [13]. The experiment in a line: SPR, summary table; relative to agalsidase β.

From patent publication US20190046657A1 come the findings set out here.

For orientation: Kd means the constant that tells how readily two partners part at equilibrium. Read a high Kd as a looser complex. By koff is commonly meant a measure of how fast the partners let go of each other. Broadly, the kon is the rate constant with which the complex forms. Read a low kon as slower complex formation.

In [1], “agalsidase β (from UniProt P06280 32-429) (enzyme)” yielded a relative KD / binding affinity (% of agalsidase beta) of 100%, a relative ka (% of agalsidase beta) of 100% and a relative kd (% of agalsidase beta) of 100%. In test [2], this molecule came in with a Kd of 20 nM, an off-rate constant (koff) of 0.00273 s⁻¹ and a kon of 135000 M⁻¹ s⁻¹. In addition, in test [3], the intracellular uptake activity (Kuptake) is 13.7 nM.

On to “galsulfase (from UniProt P15848 39-533) (enzyme)”, for which, in test [4], the dissociation constant Kd worked out at 0.38 nM, the dissociation rate constant (koff) was 0.0013 s⁻¹ and the on-rate (kon) turned out to be 3.49e+06 M⁻¹ s⁻¹.

For “iduronidase (from UniProt P35475 26-653) (enzyme)”, in test [5], the Kd was found to be 0.59 nM, the koff was determined as 0.00565 s⁻¹ and the kon worked out at 1.69e+07 M⁻¹ s⁻¹.

As for “imiglucerase (from UniProt P04062 40-536) (enzyme)”, in test [4], the dissociation constant Kd is 17.3 nM, the koff was 0.00387 s⁻¹ and the kon was determined as 232000 M⁻¹ s⁻¹.

Turning to “long-acting galsulfase conjugate (galsulfase-polyethylene glycol linker-immunoglobulin Fc conjugate) (from UniProt P15848 39-533)”, the Binding affinity to M6PR (vs. 1st ERT) in [6] turned out to be 25%. Also, in [4], the Kd worked out at 1.48 nM, the koff was determined as 0.00122 s⁻¹ and the kon was found to be 832000 M⁻¹ s⁻¹.

B1: long-acting imiglucerase conjugate (imiglucerase-polyethylene glycol linker-immunoglobulin Fc conjugate) (protein, part only; not given: Fc and PEG linker, human, UniProt P04062 40-536, looked up, not shown: a dimerising Fc or GST)
chain: ARPCIPKSFGYSSVVCVCNATYCDSFDPPTFPALGTFSRYESTRSGRRMELSMGPIQANHTGTGLLLTLQPEQKFQKVKGFGGAMTDAAALNILALSPPAQNLLLKSYFSEEGIGYNIIRVPMASCDFSIRTYTYADTPDDFQLHNFSLPEEDTKLKIPLIHRALQLAQRPVSLLASPWTSPTWLKTNGAVNGKGSLKGQPGDIYHQTWARYFVKFLDAYAEHKLQFWAVTAENEPSAGLLSGYPFQCLGFTPEHQRDFIARDLGPTLANSTHHNVRLLMLDDQRLLLPHWAKVVLTDPEAAKYVHGIAVHWYLDFLAPAKATLGETHRLFPNTMLFASEACVGSKFWEQSVRLGSWDRGMQYSHSIITNLLYHVVGWTDWNLALNPEGGPNWVRNFVDSPIIVDITKDTFYKQPMFYHLGHFSKFIPEGSQRVGLVASQKNDLDAVALMHPDGSAVVVVLNRSSKDVPLTIKDPAVGFLETISPGYSIHTYLWRRQ
modifications: N-terminus covalently linked to a 10 kDa polyethylene glycol linker (ALD-PEG-ALD), whose other end is linked to the N-terminus of one chain of the immunoglobulin Fc
For the molecule B1, in test [7], the Kd came out at 79.6 nM, the koff worked out at 0.0039 s⁻¹ and the on-rate (kon) is 49000 M⁻¹ s⁻¹. The molecule further yielded a Binding affinity to M6PR (vs. 1st ERT) in test [8] of 22%.

B2: long-acting iduronidase conjugate (laronidase-polyethylene linker-immunoglobulin Fc conjugate) (protein, part only; not given: Fc and PEG linker, UniProt P35475 26-653, looked up, not shown: a dimerising Fc or GST)
chain: AEAPHLVHVDAARALWPLRRFWRSTGFCPPLPHSQADQYVLSWDQQLNLAYVGAVPHRGIKQVRTHWLLELVTTRGSTGRGLSYNFTHLDGYLDLLRENQLLPGFELMGSASGHFTDFEDKQQVFEWKDLVSSLARRYIGRYGLAHVSKWNFETWNEPDHHDFDNVSMTMQGFLNYYDACSEGLRAASPALRLGGPGDSFHTPPRSPLSWGLLRHCHDGTNFFTGEAGVRLDYISLHRKGARSSISILEQEKVVAQQIRQLFPKFADTPIYNDEADPLVGWSLPQPWRADVTYAAMVVKVIAQHQNLLLANTTSAFPYALLSNDNAFLSYHPHPFAQRTLTARFQVNNTRPPHVQLLRKPVLTAMGLLALLDEEQLWAEVSQAGTVLDSNHTVGVLASAHRPQGPADAWRAAVLIYASDDTRAHPNRSVAVTLRLRGVPPGPGLVYVTRYLDNGLCSPDGEWRRLGRPVFPTAEQFRRMRAAEDPVAAAPRPLPAGGRLTLRPALRLPSLLLVHVCARPEKPPGQVTRLRALPLTQGQLVLVWSDEHVGSKCLWTYEIQFSQDGKAYTPVSRKPSTFNLFVFSPDTGAVSGSYRVRALDYWARPGPFSDPVPYLEVPVPRGPPSPGNP
modifications: N-terminus covalently linked to a 10 kDa polyethylene glycol linker (ALD-PEG-ALD), whose other end is linked to the N-terminus of one chain of the immunoglobulin Fc
Turning to B2, in test [9], the Kd turned out to be 4.72 nM, the koff is 0.00223 s⁻¹ and the kon worked out at 474000 M⁻¹ s⁻¹. This molecule also showed a Binding affinity to M6PR (vs. 1st ERT) in test [10] of 13%.

B3: long-acting agalsidase β conjugate (agalsidase β-polyethylene glycol linker-immunoglobulin Fc conjugate) (protein, part only; not given: Fc and PEG linker, UniProt P06280 32-429, looked up, not shown: a dimerising Fc or GST)
chain: LDNGLARTPTMGWLHWERFMCNLDCQEEPDSCISEKLFMEMAELMVSEGWKDAGYEYLCIDDCWMAPQRDSEGRLQADPQRFPHGIRQLANYVHSKGLKLGIYADVGNKTCAGFPGSFGYYDIDAQTFADWGVDLLKFDGCYCDSLENLADGYKHMSLALNRTGRSIVYSCEWPLYMWPFQKPNYTEIRQYCNHWRNFADIDDSWKSIKSILDWTSFNQERIVDVAGPGGWNDPDMLVIGNFGLSWNQQVTQMALWAIMAAPLFMSNDLRHISPQAKALLQDKDVIAINQDPLGKQGYQLRQGDNFEVWERPLSGLAWAVAMINRQEIGGPRSYTIAVASLGKGVACNPACFITQLLPVKRKLGFYEWTSRLRSHINPTGTVLLQLENTMQMSLKDLL
modifications: N-terminus covalently linked to a 10 kDa polyethylene glycol linker (ALD-PEG-ALD), whose other end is linked to the N-terminus of one chain of the immunoglobulin Fc
Consider B3, for which, in test [11], the relative KD / binding affinity (% of agalsidase beta) was found to be 67.6%, the relative ka (% of agalsidase beta) worked out at 70.4% and the relative kd (% of agalsidase beta) is 101%. In test [3], this molecule displayed an Intracellular uptake (vs. 1st ERT) of 47% and an intracellular uptake activity (Kuptake) of 29.3 nM. Also, in [12], the Kd stood at 29.6 nM, the koff was determined as 0.00277 s⁻¹ and the kon was determined as 80000 M⁻¹ s⁻¹. In addition, in [13], the Binding affinity to M6PR (vs. 1st ERT) turned out to be 68%.
